Data: patent publication CN117247456A (SANYOU BIO INC, dated 2023)

What was measured:
重组人PD-L1-mFc = molecular target: T1, 重组人PD-L1-mFc (human, UniProt Q9NZQ7 19-238); test: ELISA, plate coated with PD-L1-mFc, anti-human IgG Fc-HRP (reference antibody)
T1 construct: also called 人重组蛋白PD-L1-mFc; PD-L1蛋白

重组人PD-L1-His = 重组人PD-L1-His (human, UniProt Q9NZQ7 19-238); test: SPR, Biacore T200, PD-L1-His as analyte (reference antibody)
[1] = molecular target: T2, 人PD-L1 on huPD-L1-CHO-S细胞 (human, UniProt Q9NZQ7 19-290); test: flow cytometry on huPD-L1-CHO-S cells (reference antibody)
T2 construct: whole, on cells; also called 细胞表面PD-L1
T2 sequence (Q9NZQ7 19-290): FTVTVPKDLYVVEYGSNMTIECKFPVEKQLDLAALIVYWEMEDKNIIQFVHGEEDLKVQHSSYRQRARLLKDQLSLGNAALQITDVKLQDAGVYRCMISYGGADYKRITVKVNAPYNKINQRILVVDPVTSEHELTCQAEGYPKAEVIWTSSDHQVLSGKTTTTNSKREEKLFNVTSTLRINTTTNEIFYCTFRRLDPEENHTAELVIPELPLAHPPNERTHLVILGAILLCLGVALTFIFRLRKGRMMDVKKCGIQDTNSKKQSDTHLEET

Measured: binding result

T1 sequence (Q9NZQ7 19-238 limits assumed): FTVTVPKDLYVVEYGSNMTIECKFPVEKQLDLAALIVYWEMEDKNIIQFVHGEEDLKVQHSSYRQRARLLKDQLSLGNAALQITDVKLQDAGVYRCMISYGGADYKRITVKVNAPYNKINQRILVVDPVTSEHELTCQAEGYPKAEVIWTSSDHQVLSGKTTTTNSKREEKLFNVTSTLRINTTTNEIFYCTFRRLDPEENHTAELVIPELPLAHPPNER
重组人PD-L1-His, sequence (Q9NZQ7 19-238 limits assumed): as above

B1: 抗人PD-L1抗体D21-4 (antibody, V domains shown)
VH: EVQLVESGGGLVQPGGSLRLSCAASRTDRNINTMHWYRQAPGKGREWVGTIFIDLNTIVTDSVKGRFTISRDNAKNTLYLQMNTLRAEDTAVYYCAADVSGYGRAWGQGTTVTVSS
notes: also called 亲本抗体D21-4; 亲本PD-L1抗体D21-4; not shown: rest of the 'complete control antibody' (constant part / Fc) is not described
binds: 重组人PD-L1-mFc | 重组人PD-L1-His | [1]
